Source: patent US20190177396A1 (INSERM INSTITUTE NATIONAL DE LA SANTE ET DE LA RECHERCHE …, published 2019)
Blank lines part the entries; values can stand above or below the molecule they belong to.

Tests used:
[1] = biological target: human CD31 (PECAM-1) (human) (UniProt P16284); assay: 10-colour flow cytometry on human peripheral blood leukocytes of a healthy donor, WM59-PE against PECAM 1.2-FITC; gate 2 (CD8) = memory CD8+ T cells
[2] = biological target: human CD31 (PECAM-1) (human) (UniProt P16284); assay: 10-colour flow cytometry on human peripheral blood leukocytes of a healthy donor, WM59-PE against PECAM 1.2-FITC; gate CD20 = B lymphocytes
[3] = biological target: human CD31 (PECAM-1) (human) (UniProt P16284); assay: 10-colour flow cytometry on human peripheral blood leukocytes of a healthy donor, WM59-PE against PECAM 1.2-FITC; gate 3 (CD8) = naive CD8+ T cells
[4] = biological target: human CD31 (PECAM-1) (human) (UniProt P16284); assay: 10-colour flow cytometry on human peripheral blood leukocytes of a healthy donor, WM59-PE against PECAM 1.2-FITC; gate 1 (CD4) = activated CD4+ T cells
[5] = biological target: human CD31 (PECAM-1) (human) (UniProt P16284); assay: 10-colour flow cytometry on human peripheral blood leukocytes of a healthy donor, WM59-PE against PECAM 1.2-FITC; gate 3 (CD4) = naive CD4+ T cells
[6] = biological target: CD31shed (residual cell-bound human CD31 after shedding between the 5th and 6th extracellular Ig-like domains) (human) (UniProt P16284); assay: 10-colour flow cytometry on human peripheral blood leukocytes of a healthy donor, WM59-PE against PECAM 1.2-FITC; gate 2 (CD8) = memory CD8+ T cells
[7] = biological target: CD31shed (residual cell-bound human CD31 after shedding between the 5th and 6th extracellular Ig-like domains) (human) (UniProt P16284); assay: 10-colour flow cytometry on human peripheral blood leukocytes of a healthy donor, WM59-PE against PECAM 1.2-FITC; gate CD20 = B lymphocytes
[8] = biological target: CD31shed (residual cell-bound human CD31 after shedding between the 5th and 6th extracellular Ig-like domains) (human) (UniProt P16284); assay: 10-colour flow cytometry on human peripheral blood leukocytes of a healthy donor, WM59-PE against PECAM 1.2-FITC; gate 3 (CD8) = naive CD8+ T cells
[9] = biological target: CD31shed (residual cell-bound human CD31 after shedding between the 5th and 6th extracellular Ig-like domains) (human) (UniProt P16284); assay: 10-colour flow cytometry on human peripheral blood leukocytes of a healthy donor, WM59-PE against PECAM 1.2-FITC; gate 1 (CD4) = activated CD4+ T cells
[10] = biological target: CD31shed (residual cell-bound human CD31 after shedding between the 5th and 6th extracellular Ig-like domains) (human) (UniProt P16284); assay: 10-colour flow cytometry on human peripheral blood leukocytes of a healthy donor, WM59-PE against PECAM 1.2-FITC; gate 3 (CD4) = naive CD4+ T cells
[11] = biological target: the 23-mer peptide; assay: BIAcore; format not described
[12] = biological target: the molecule itself; assay: SPR (BIAcore 2000), peptide coated on CM5 chip, same peptide injected at 12.5-100 µM
Description: Plasmon Surface Resonance. Homophilic binding association and dissociation constants were calculated by surface plasmon resonance (BIAcore® 2000, GE). […] Dissociation was monitored for 300 seconds. Association (kon) and dissociation (koff) constants were calculated using the BIAevaluation 3.0 Software (GE).

Molecule: anti-CD31 monoclonal antibody clone PECAM 1.2
percent of gated cells in the lower right quadrant (dom1-/dom6+) [6]: 29.7
percent of gated cells in the lower right quadrant (dom1-/dom6+) [7]: 12
percent of gated cells in the lower right quadrant (dom1-/dom6+) [8]: 23.5
percent of gated cells in the lower right quadrant (dom1-/dom6+) [9]: 90.6
percent of gated cells in the lower right quadrant (dom1-/dom6+) [10]: 28.1

B1: mouse CD31 peptide 551-574 (peptide)
peptide: SSMRTSPRSSTLAVRVFLAPWKK
notes: Synthetic peptide, juxta-membrane 23 amino acids of the mouse CD31 ectodomain; In the SPR assay it was both coated on the CM5 chip and injected as analyte
Kd [12]: 17.8 µM
koff [12]: 0.00158 s⁻¹
kon [12]: 134 M⁻¹ s⁻¹

Other lines, results leading:

percent of gated cells in the upper right quadrant (dom1+/dom6+) [1]: 70.3
percent of gated cells in the upper right quadrant (dom1+/dom6+) [2]: 88
percent of gated cells in the upper right quadrant (dom1+/dom6+) [3]: 76.5
percent of gated cells in the upper right quadrant (dom1+/dom6+) [4]: 9.4
percent of gated cells in the upper right quadrant (dom1+/dom6+) [5]: 71.9
Molecule: anti-CD31 monoclonal antibody clone WM-59

Kd [11]: 17 µM
Molecule: alternatively spliced soluble CD31 (receptor)
